Assay results reported in paper PMC13189363.
Several values for one entry are separate records, joined by “and”; a condition that tells them apart may be missing. Equal entries are not always repeated.

What was measured:
[1] = molecular target: HerA from Bacillus ap. HMH5848 (Bacillus ap. HMH5848); experiment: cryo-EM structure
[2] = molecular target: DUF4297 from Bacillus ap. HMH5848 (Bacillus ap. HMH5848); experiment: mass photometry
[3] = molecular target: DUF4297 from Bacillus ap. HMH5848 (Bacillus ap. HMH5848); experiment: cryo-EM structure

Substance	stoichiometry N [1]	stoichiometry N [2]	stoichiometry N [3]
HerA from Bacillus ap. HMH5848 (enzyme)	6		
DUF4297 from Bacillus ap. HMH5848 (enzyme)		6 and 12 and 14	12 and 4 and 6
